Results published in US20250177521A1.

molecular target: Fc gamma receptor (FcγR); assay: cell-based or functional assay

Question: Which results are given for “non-glycoengineered, wild type glycosylated OBZ (antibody)”?
Answer: mean fold difference in CD107a on CD3-CD56+ NK cells against samples without mAbs, RA: 1.9 fold; mean fold difference in CD107a on CD3-CD56+ NK cells against samples without mAbs, SLE: 1.4 fold

Question: For Obinutuzumab (antibody), which mean fold difference in CD107a on CD3-CD56+ NK cells against samples without mAbs, RA is on record?
Answer: 3.1 fold

Question: What about the mean fold difference in CD107a on CD3-CD56+ NK cells against samples without mAbs, SLE of the same substance?
Answer: 1.8 fold

Question: Which results are given for rituximab (antibody)?
Answer: mean fold difference in CD107a on CD3-CD56+ NK cells against samples without mAbs, RA: 1.2 fold; mean fold difference in CD107a on CD3-CD56+ NK cells against samples without mAbs, SLE: 1.5 fold
